Positions count from the first letter of the chain named.
T1: human recombinant CD123 protein (human, UniProt P26951 19-300)
T1 construct: range 19-300
T1 sequence (looked up): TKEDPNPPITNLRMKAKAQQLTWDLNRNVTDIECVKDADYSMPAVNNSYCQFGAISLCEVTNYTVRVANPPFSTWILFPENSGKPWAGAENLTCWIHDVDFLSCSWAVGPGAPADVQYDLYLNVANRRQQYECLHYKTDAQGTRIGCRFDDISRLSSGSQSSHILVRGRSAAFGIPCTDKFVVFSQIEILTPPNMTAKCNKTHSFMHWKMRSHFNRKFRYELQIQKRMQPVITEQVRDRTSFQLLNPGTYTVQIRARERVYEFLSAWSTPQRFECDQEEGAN

B1: bispecific antibody BM#1 against CD33 and CD123 (bispecific antibody, human IgG1)
chain 1: QVQLVESGGGSVQAGGSLRLSCAASGYTYSSTCIGWFRQAPGKDREGVAFAYTGGGVTYADSVKGRFTISQDNAKNTVHLIMNSLKPEDTAMYYCAAKTRGGCWAAAAFYNYWGQGTQVTVSSEPKSCDKTHTCPPCPAPELLGGPSVFLFPPKPKDTLMISRTPEVTCVVVDVSHEDPEVKFNWYVDGVEVHNAKTKPREEQYNSTYRVVSVLTVLHQDWLNGKEYKCKVSNKALPAPIEKTISKAKGQPREPQVYTLPPSRDELTKNQVSLWCLVKGFYPSDIAVEWESNGQPENNYKTTPPVLVSDGSFTLYSKLTVDKSRWQQGNVFSCSVMHEALHNHYTQKSLSLSPGK
chain 2: not shown
notes: VHH-Fc heterodimer
B2: bispecific antibody BM#4 against CD33 and CD123 (bispecific antibody, human IgG1)
chain 1: B1 chain 1 with E265K, W274V, V307K, T313F
chain 2: QVQLVESGGGSVQAGGSLKLSCAASRFIFSRCGMGWFRQAPGKERELVSTISGDGTTFYADSVKGRFTISQHNAATTLYLQMNSLKLEDTAVYYCAADCYNRKYWGQGTQVTVSSEPKSCDKTHTCPPCPAPELLGGPSVFLFPPKPKDTLMISRTPEVTCVVVDVSHEDPEVKFNWYVDGVEVHNAKTKPREEQYNSTYRVVSVLTVLHQDWLNGKEYKCKVSNKALPAPIEKTISKAKGQPREPQVYTLPPSRDELTKNQVSLTCLVEGFYPSDIAVEWESNGQPENNYKTTPPVLDSDGSFFLASDLTVDKSRWQQGNVFSCSVMHEALHNHYTQKSLSLSPGK
notes: VHH-Fc heterodimer; also called BM-RT2831-#4
B3: bispecific antibody BM#32 against CD33 and CD123 (bispecific antibody, human IgG1)
chain 1: B1 chain 1 with Q255R, E265D, W274T, V307D, T313F, Y315A
chain 2: B2 chain 2 with K260D, E270Y, A307Y, D309V
notes: VHH-Fc heterodimer; also called BM-RT2831-#32
B4: bispecific antibody BM#26 against CD33 and CD123 (bispecific antibody, human IgG1)
chain 1: B1 chain 1 with D264K, E265K, W274T
chain 2: B2 chain 2 with A307Y, D309W, K339E
notes: VHH-Fc heterodimer
B5: bispecific antibody BM#24 against CD33 and CD123 (bispecific antibody, human IgG1)
chain 1: B1 chain 1 with D264K, E265D, W274T, V307D, T313F, Y315A
chain 2: B2 chain 2 with E270Y, A307Y, D309V, K339E
notes: VHH-Fc heterodimer; also called BM-RT2831-#24
B6: bispecific antibody BM#22 against CD33 and CD123 (bispecific antibody, human IgG1)
chain 1: B1 chain 1 with E265K, W274T
chain 2: not shown
notes: VHH-Fc heterodimer; also called BM-RT2831-#22
B7: bispecific antibody BM#14 against CD33 and CD123 (bispecific antibody, human IgG1)
chain 1: B1 chain 1 with W274V, K278E, V307D, T313F, K317D
chain 2: B2 chain 2 with E257K, E270K, D299K, D309K
notes: VHH-Fc heterodimer
B8: bispecific antibody BM#23 against CD33 and CD123 (bispecific antibody, human IgG1)
chain 1: B1 chain 1 with E265D, W274T
chain 2: not shown
notes: VHH-Fc heterodimer; also called BM-RT2831-#23
B9: bispecific antibody BM#29 against CD33 and CD123 (bispecific antibody, human IgG1)
chain 1: B1 chain 1 with Q255R, D264K, W274T, V307D, T313F, Y315A
chain 2: B2 chain 2 with K260D, E270K, A307Y, D309V, K339E
notes: VHH-Fc heterodimer; also called BM-RT2831-#29
B10: bispecific antibody BM#12 against CD33 and CD123 (bispecific antibody, human IgG1)
chain 1: B1 chain 1 with K278E, V307D, T313F, K317D
chain 2: not shown
notes: VHH-Fc heterodimer
B11: bispecific antibody BM#13 against CD33 and CD123 (bispecific antibody, human IgG1)
chain 1: not shown
chain 2: B2 chain 2 with E270K, D299V, F305T, D309K
notes: VHH-Fc heterodimer
B12: bispecific antibody BM#28 against CD33 and CD123 (bispecific antibody, human IgG1)
chain 1: B1 chain 1 with D264K, E265D, W274T, V307K, T313F
chain 2: B2 chain 2 with E270Y, A307Y, K339E
notes: VHH-Fc heterodimer
B13: bispecific antibody BM#3 against CD33 and CD123 (bispecific antibody, human IgG1)
chain 1: B1 chain 1 with W274V
chain 2: not shown
notes: VHH-Fc heterodimer; also called BM-RT2831-#3
B14: bispecific antibody BM#36 against CD33 and CD123 (bispecific antibody, human IgG1)
chain 1: not shown
chain 2: B2 chain 2 with E270K, T294S, V297A, F305A, A307V, D309K
notes: VHH-Fc heterodimer
B15: bispecific antibody BM#27 against CD33 and CD123 (bispecific antibody, human IgG1)
chain 1: B1 chain 1 with D264K, E265D, W274T
chain 2: B2 chain 2 with E270Y, A307Y, D309W, K339E
notes: VHH-Fc heterodimer; also called BM-RT2831-#27
B16: bispecific antibody BM#2 against CD33 and CD123 (bispecific antibody, human IgG1)
chain 1: B1 chain 1 with E265K, V307K, T313F
chain 2: not shown
notes: VHH-Fc heterodimer
B17: bispecific antibody BM#30 against CD33 and CD123 (bispecific antibody, human IgG1)
chain 1: B1 chain 1 with Q255R, E265K, W274T, V307D, T313F, Y315A
chain 2: B2 chain 2 with K260D, A307Y, D309V
notes: VHH-Fc heterodimer; also called BM-RT2831-#30
B18: bispecific antibody BM#21 against CD33 and CD123 (bispecific antibody, human IgG1)
chain 1: B1 chain 1 with D264K, W274T
chain 2: not shown
notes: VHH-Fc heterodimer; also called BM-RT2831-#21
B19: anti-CD123 single domain antibody (VHH)
VHH: QVQLVESGGGSVQAGGSLKLSCAASRFIFSRCGMGWFRQAPGKERELVSTISGDGTTFYADSVKGRFTISQHNAATTLYLQMNSLKLEDTAVYYCAADCYNRKYWGQGTQVTVSS
notes: Tested as crude extract from the pMECS clone and detected through an HA tag; also called second VHH

Target: T2, human FCγRIIIa receptor (human, UniProt P08637 17-208, limits assumed)
T2 construct: Used in solution as the 'antigen' in BLI; also called FcγIIIa receptor
Experiment: BLI; Ratio against the hIgG (hIgG1) control, fits KD(hIgG)/KD(sample)
Procedure: (§1) (3) Preparation of antigen working solution: 200 nM antigen (FCγRIIIa) in SD buffer was first prepared at and then serially diluted in 2 folds to prepare a total of 5 concentration gradients, in addition to which a zero concentration was prepared.
(§2) (11) Data analysis: related constants, such as KD, Kon, Koff, X2, Full R2 and the like were calculated in Data Analysis software.
(§3) In the examples of the present application, the modified bispecific antibody was subjected to BLI test to determine the affinity of the modified bispecific antibody to human FCγRIIIa.

T2 sequence (P08637 17-208 limits assumed): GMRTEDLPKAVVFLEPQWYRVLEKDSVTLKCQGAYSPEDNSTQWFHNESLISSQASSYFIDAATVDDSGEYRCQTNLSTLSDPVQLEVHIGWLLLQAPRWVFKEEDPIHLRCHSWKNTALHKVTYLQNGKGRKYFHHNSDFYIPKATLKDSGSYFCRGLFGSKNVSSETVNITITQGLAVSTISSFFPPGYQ

Ratio	Binder
1.29	B1
1.19	B2
1.17	B3
1.15	B4
1.06	B5
1.03	B6
1.61	B7
1.08	B8
1.2	B9
1.65	B10
1.42	B11
1.45	B12
1	B13
1.38	B14
0.91	B15
1.12	B16
1.27	B17
1.04	B18

Target: T2, human FCγRIIIa receptor
Experiment: BLI (Octet 96), antibody loaded on sensor, FCγRIIIa 200 nM and 2-fold dilutions in solution
Procedure: as §1, §2, §3

Kd	Binder
68.9 nM	B1
74.2 nM	B2
76 nM	B3
76.9 nM	B4
83.3 nM	B5
86.3 nM	B6
55.2 nM	B7
82.1 nM	B8
73.9 nM	B9
53.8 nM	B10
62.5 nM	B11
61.3 nM	B12
88.2 nM	B13
64.2 nM	B14
96.9 nM	B15
79.1 nM	B16
69.6 nM	B17
85.4 nM	B18

Target: T1, human recombinant CD123 protein
Experiment: ELISA of crude antibody extract on coated antigen, anti-HA detection; positive clone if OD450 is more than 5 times the control
Procedure: 2. CD33 protein or CD123 protein was diluted into 100 mM NaHCO₃ at pH 8.3. An ELISA plate was coated with 100 μg CD33 protein at 4° C. overnight. The next day, […] BSA-Biotin protein was added to the ELISA plate.
3. 100 μL of crude antibody extract obtained in the above step was transferred to the ELISA plate into which the antigen was added, and incubated at room temperature for 1 h.

binding result	Binder
binds	B19

— US20250163166A1 (REGENECORE BIOTECH, published 2025)
